For test [1], the target named is ATPase domain of ParE, strep-tagged (E. coli). As to the kind of experiment: BLI; […]; 30 °C; PBS with 0.2% BSA, 0.02% Tween-20; association and dissociation 120 s; […]. On the technique in general: BLI is a label-free optical method that tracks binding on a fibre tip over time.
Test [2] addresses T1, His-tagged Cpe1tox^C362A (catalytically inactive toxin domain) (Escherichia coli strain ATCC 11775, UniProt P0DXX9 338-479, C362A).
T1 sequence: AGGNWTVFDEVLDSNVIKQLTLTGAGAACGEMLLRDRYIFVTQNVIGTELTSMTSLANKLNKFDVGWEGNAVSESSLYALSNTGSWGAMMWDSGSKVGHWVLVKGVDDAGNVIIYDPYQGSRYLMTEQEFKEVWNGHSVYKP
As to the kind of experiment: BLI.

Test [3] has as its target T2, His-tagged Cpe1tox^C362A (catalytically inactive toxin domain) (Escherichia coli strain ATCC 11775, UniProt P0DXX9 338-479, C362A).
T2 construct: not shown: His6, N-terminal, kept
T2 sequence: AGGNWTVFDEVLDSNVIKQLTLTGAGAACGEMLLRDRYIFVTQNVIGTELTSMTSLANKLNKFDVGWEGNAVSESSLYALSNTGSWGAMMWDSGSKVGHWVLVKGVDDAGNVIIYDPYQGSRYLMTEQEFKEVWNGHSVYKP
Kind of test: BLI; […]; 30 °C; PBS with 0.2% BSA, 0.02% Tween-20; association 150 s, dissociation 300 s; 1:1 global fit. As to conditions: both partners purified.

Usually Kd stands for the concentration at which binding is half-saturated. A higher Kd goes with lower affinity. As usually defined, the koff is a measure of how fast the partners let go of each other.

B1: His-tagged Cpe1tox^C362A (catalytically inactive toxin domain) (domain or fragment)
chain: AGGNWTVFDEVLDSNVIKQLTLTGAGAACGEMLLRDRYIFVTQNVIGTELTSMTSLANKLNKFDVGWEGNAVSESSLYALSNTGSWGAMMWDSGSKVGHWVLVKGVDDAGNVIIYDPYQGSRYLMTEQEFKEVWNGHSVYKP
In turn, B1 showed a Kd in test [1] of 343 nM.

B2: strep-tagged Cpi1 (wild type) (natural protein)
chain: MGIVFTNHNIDLLSVEFDEITKNCNYTFSVDGETAIFTARISIIRNIKGIKYSEELDKFIMSIMPLQPKVSKILGGVTWDCICGKEVGFPVRLIGK
notes: source: E. coli BL21 (DE3), pETDuet-1, purified (streptavidin resin, gel filtration)
On to B2, for which, in test [2], the koff is 0.00303 s⁻¹. In test [3], this molecule came in with an equilibrium dissociation constant (Kd) of 8.58 nM.

B3: ATPase domain of ParE, strep-tagged (domain or fragment)
chain: MTQTYNADAIEVLTGLEPVRRRPGMYTDTTRPNHLGQEVIDNSVDEALAGHAKRVDVILHADQSLEVIDDGRGMPVDIHPEEGVPAVELILCRLHAGGKFSNKNYQFSGGLHGVGISVVNALSKRVEVNVRRDGQVYNIAFENGEKVQDLQVVGTCGKRNTGTSVHFWPDETFFDSPRFSVSRLTHVLKAKAVLCPGVEITFKDEINNTEQRWCYQDGLNDYLAEAVNGLPTLPEKPFIGNFAGDTEAVDWALLWLPEGGELLTESYVNLIPTMQGGTHVNGLRQGLLDAMREFCEYRNILPRGVKLSAEDIWDRCAYVLSVKMQDPQFAGQTKERLSSRQCAAFVSGVVKDAFILWLNQNVQAAELLAEMAISSAQRRMRAAKKVVRKK
modifications: C-terminal strep tag left out. Limits are not given; 1-390 is taken from the 43-kDa ATPase domain in PDB 1S16 (390 aa), which the paper uses for ParE. The K-12 strain is inferred.
Take B3: the koff in test [2] was found to be 0.47 s⁻¹.

The values are drawn from article PMC12136450 (PLOS Biology, 2025).
